Literature values as cited in patent publication US6664231B1, “Anti-fungal peptides” (priority 1993, dated 2003).

What was measured:
gram-negative bacteria = details: as low as; cited from earlier work
[1] = test system: gram-positive organisms Staphylococcus aureus, Staphylococcus epidermidis, Streptococcus faecalis, Bacillus subtilis, Micrococcus lysodeikricus, Listeria …; details: 10^−6 M or 160 μg/ml, pH 7.0 or 5.5; cited from earlier work
[2] = test system: Candida albicans and Candida parapsilosis; details: 10^−6 M, pH 7.0 or 5.5; cited from earlier work
[3] = test system: human, rabbit and sheep red blood cells and several human tumor cell lines; details: cited from earlier work

B1: BPI: bactericidal/permeability-increasing protein isolated from the granules of mammalian polymorphonuclear leukocytes (protein, UniProt P17213 32-487, looked up)
Bactericidal …: VNPGVVVRISQKGLDYASQQGTAALQKELKRIKIPDYSDSFKIKHLGKGHYSFYSMDIREFQLPSSQISMVPNVGLKFSISNANIKISGKWKAQKRFLKMSGNFDLSIEGMSISADLKLGSNPTSGKPTITCSSCSSHINSVHVHISKSKVGWLIQLFHKKIESALRNKMNSQVCEKVTNSVSSELQPYFQTLPVMTKIDSVAGINYGLVAPPATTAETLDVQMKGEFYSENHHNPPPFAPPVMEFPAAHDRMVYLGLSDYFFNTAGLVYQEAGVLKMTLRDDMIPKESKFRLTTKFFGTFLPEVAKKFPNMKIQIHVSASTPPHLSVQPTGLTFYPAVDVQAFAVLPNSSLASLFLIGMHTTGSMEVSAESNRLVGELKLDRLLLELKHSNIGPFPVELLQDIMNYIVPILVLPRVNEKLQKGFPLPTPARVQLYNVVLQPHQNFLLFGADVVYK
concentration exhibiting anti-bacterial activity towards gram-negative bacteria (gram-negative bacteria): 10^−8 to 10^−9 M | toxic effect on gram-positive organisms [1]: no toxic effect | toxic effect on fungi [2]: no toxic effect | toxicity to higher eukaryotic cells [3]: non-toxic
